# B1: AMP candidate from Streptosporangium becharense DSM 46887: 102 amino acid AMP candidate with signal peptide from Streptosporangium becharense DSM 46887, overexpressed in E. coli (protein)
# chain: MKRIFLVPALTAGIFALTTGAAYASQYIAYEGPGFTGRSVLIDACGPSNIPYHGSYKWYGDGQSGRMYNQPNAHGVMHFRLPSNNNAEQRTPVGWQSIFIEC
# modifications: Streptosporangium becharense
# notes: 102 amino acid AMP candidate with signal peptide from Streptosporangium becharense DSM 46887, overexpressed in E. coli
# Test system: Saccharomyces cerevisiae
# Assay: Antimicrobial peptide inhibition assay (filter paper disk on YPD agar plate, zone of inhibition)
# Assay type: cell-based
# Details: protein extract from recombinant E. coli BL21 (DE3) overexpressing the AMP, 6-mm filter paper disk on YPD agar plate, 30° C. for 24 h
# Experimental: A 102 amino acid AMP candidate from Streptosporangium becharense DSM 46887 (GenBank ID: MBB5817359.1) with a predicted molecular weight of 11.2 kDa, pI of 8.67 and charge of 3.5, was cloned in E. coli for functional validation. The sequence was codon optimized and sent to Twist Biosciences (San Francisco, CA) for synthesis and cloned into a pET-21 (+) expression vector. The plasmid DNA (pET-21 (+)_AMP_S.be) was then transferred into E. coli BL21 (DE3) strain with […] carbenicillin (MilliporeSigma, Burlington, MA) selection. To overexpress the short peptide, 100 mL of E. coli BL21 (DE3) harboring the recombinant plasmid was cultured in Luria-Bertani broth containing […] of carbenicillin at 37° C. until the mid-exponential phase. The overexpression was induced by addition of 0.1 mM isopropyl-b-D-thiogalactopyranoside (MilliporeSigma, Burlington, MA) at 25° C. and 120 rpm for 16 h. […]
# Yeast Saccharomyces cerevisiae was used for the antimicrobial activity assessment with proteins extracted from the recombinant E. coli. […] After incubation at 30° C. for 24 h, the antimicrobial activity of the short peptide was determined by appearance of the zone of inhibition. To confirm the overexpression of the short peptide, the protein extract was analyzed using SDS-PAGE gel (12% Mini-PROTEAN_TGXTM Precast Gel, Bio-Rad Laboratories, Hercules, CA). […]
molecule,measurement,setting,value
B1,antimicrobial activity determined by appearance of the zone of inhibition,,Inhibition of Saccharomyces cerevisiae is demonstrated
same,antimicrobial activity determined by appearance of the zone of inhibition,listed as AMP candidate of Streptosporangium becharense DSM 46887,Inhibition of Saccharomyces cerevisiae
